Numbering of substitutions follows the chain as printed. Names may count otherwise.
B1: Fab VH5-51_IGHD5-18*01>3_IGHJ4*01 G100K/G104T G24T/S28R/G35V (H:KT TRV) & V3-4_IGLJ1*01 M94T (Fab, V domains shown)
VH: EVQLVQSGAEVKKPGESLKISCKTSGYRFTSYWIVWVRQMPGKGLEWMGIIYPGDSDTRYSPSFQGQVTISADKSISTAYLQWSSLKASDTAMYYCARRKYSYTYDYFDYWGQGTLVTVSS
VL: QTVVTQEPSFSVSPGGTVTLTCGLSSGSVSTSYYPSWYQQTPGQAPRTLIYSTNTRSSGVPDRFSGSILGNKAALTITGAQADDESDYYCVLYTGSGISYVFGTGTKVTVL
notes: Fab; expressed from plasmid A (CH1, His6 and Flag tags) and plasmid E (lambda CL)
B2: Fab VH5-51_IGHD5-18*01>3_IGHJ4*01 G100K/G104T G24T/S28R/G35V (H:KT TRV) & V3-4_IGLJ1*01 S96W (Fab, V domains shown)
VH: B1 VH
VL: B1 VL with T94M, S96W
notes: as for B1
B3: Fab VH5-51_IGHD5-18*01>3_IGHJ4*01 G100K/G104T G24T/S28R/G35V (H:KT TRV) & V3-4_IGLJ1*01 S96G (Fab, V domains shown)
VH: B1 VH
VL: B1 VL with T94M, S96G
notes: as for B1
B4: Fab VH5-51_IGHD5-18*01>3_IGHJ4*01 G100K/G104T G24T/S28R/G35V (H:KT TRV) & V3-4_IGLJ1*01 S57A (Fab, V domains shown)
VH: B1 VH
VL: B1 VL with S57A, T94M
notes: as for B1
B5: Fab VH5-51_IGHD5-18*01>3_IGHJ4*01 G100K/G104T G24T/S28R/G35V (H:KT TRV) & V3-4_IGLJ1*01 P35A (Fab, V domains shown)
VH: B1 VH
VL: B1 VL with P35A, T94M
notes: Fab; expressed in E. coli with CH1 (Plasmid A, His6 and Flag tags) and lambda CL (Plasmid E); also called H:KT TRV & P35A
B6: Fab VH5-51_IGHD5-18*01>3_IGHJ4*01 G100K/G104T G24T/S28R/G35V (H:KT TRV) & V3-4_IGLJ1*01 T55A (Fab, V domains shown)
VH: B1 VH
VL: B1 VL with T55A, T94M
notes: as for B1
B7: Fab VH5-51_IGHD5-18*01>3_IGHJ4*01 G100K/G104T G24T/S28R/G35V (H:KT TRV) & V3-4_IGLJ1*01 M94S (Fab, V domains shown)
VH: B1 VH
VL: B1 VL with T94S
notes: as for B1
B8: Fab VH5-51_IGHD5-18*01>3_IGHJ4*01 G100K/G104T G24T/S28R/G35V (H:KT TRV) & V3-4_IGLJ1*01 V91C (Fab, V domains shown)
VH: B1 VH
VL: B1 VL with V91C, T94M
notes: as for B1
B9: Fab VH5-51_IGHD5-18*01>3_IGHJ4*01 G100K/G104T G24T/S28R/G35V (H:KT TRV) & V3-4_IGLJ1*01 V91I (Fab, V domains shown)
VH: B1 VH
VL: B1 VL with V91I, T94M
notes: as for B1
B10: Fab VH5-51_IGHD5-18*01>3_IGHJ4*01 G100K/G104T G24T/S28R/G35V (H:KT TRV) & V3-4_IGLJ1*01 V91G (Fab, V domains shown)
VH: B1 VH
VL: B1 VL with V91G, T94M
notes: as for B1
B11: Fab VH5-51_IGHD5-18*01>3_IGHJ4*01 G100K/G104T G24T/S28R/G35V (H:KT TRV) & V3-4_IGLJ1*01 M94P (Fab, V domains shown)
VH: B1 VH
VL: B1 VL with T94P
notes: as for B1
B12: Fab VH5-51_IGHD5-18*01>3_IGHJ4*01 G100K/G104T G24T/S28R/G35V (H:KT TRV) & V3-4_IGLJ1*01 V91P (Fab, V domains shown)
VH: B1 VH
VL: B1 VL with V91P, T94M
notes: as for B1
B13: Fab VH5-51_IGHD5-18*01>3_IGHJ4*01 G100K/G104T G24T/S28R/G35V (H:KT TRV) & V3-4_IGLJ1*01 V91L (Fab, V domains shown)
VH: B1 VH
VL: B1 VL with V91L, T94M
notes: as for B1
B14: Fab VH5-51_IGHD5-18*01>3_IGHJ4*01 G100K/G104T G24T/S28R/G35V (H:KT TRV) & V3-4_IGLJ1*01 V91S (Fab, V domains shown)
VH: B1 VH
VL: B1 VL with V91S, T94M
notes: as for B1
B15: Fab VH5-51_IGHD5-18*01>3_IGHJ4*01 G100K/G104T G24T/S28R/G35V (H:KT TRV) & V3-4_IGLJ1*01 N54A (Fab, V domains shown)
VH: B1 VH
VL: B1 VL with N54A, T94M
notes: as for B1
B16: Fab VH5-51_IGHD5-18*01>3_IGHJ4*01 G100K/G104T G24T/S28R/G35V (H:KT TRV) & V3-4_IGLJ1*01 L24A (Fab, V domains shown)
VH: B1 VH
VL: B1 VL with L24A, T94M
notes: Fab; expressed in E. coli with CH1 (Plasmid A, His6 and Flag tags) and lambda CL (Plasmid E); also called H:KT TRV & L24A
B17: Fab VH5-51_IGHD5-18*01>3_IGHJ4*01 G100K/G104T G24T/S28R/G35V (H:KT TRV) & V3-4_IGLJ1*01 L92A (Fab, V domains shown)
VH: B1 VH
VL: B1 VL with L92A, T94M
notes: Fab; expressed in E. coli with CH1 (Plasmid A, His6 and Flag tags) and lambda CL (Plasmid E); also called H:KT TRV & L92A
B18: Fab VH5-51_IGHD5-18*01>3_IGHJ4*01 G100K/G104T G24T/S28R/G35V (H:KT TRV) & V3-4_IGLJ1*01 S25A (Fab, V domains shown)
VH: B1 VH
VL: B1 VL with S25A, T94M
notes: Fab; expressed in E. coli with CH1 (Plasmid A, His6 and Flag tags) and lambda CL (Plasmid E); also called H:KT TRV & S25A
B19: Fab VH5-51_IGHD5-18*01>3_IGHJ4*01 G100K/G104T G24T/S28R/G35V (H:KT TRV) & V3-4_IGLJ1*01 M94G (Fab, V domains shown)
VH: B1 VH
VL: B1 VL with T94G
notes: as for B1
B20: Fab VH5-51_IGHD5-18*01>3_IGHJ4*01 G100K/G104T G24T/S28R/G35V (H:KT TRV) & V3-4_IGLJ1*01 S58A (Fab, V domains shown)
VH: B1 VH
VL: B1 VL with S58A, T94M
notes: as for B1
B21: Fab VH5-51_IGHD5-18*01>3_IGHJ4*01 G100K/G104T G24T/S28R/G35V (H:KT TRV) & V3-4_IGLJ1*01 G95A (Fab, V domains shown)
VH: B1 VH
VL: B1 VL with T94M, G95A
notes: Fab; expressed in E. coli with CH1 (Plasmid A, His6 and Flag tags) and lambda CL (Plasmid E); also called H:KT TRV & G95A

Key:
[1] = molecular target: T1, Recombinant Human DLL4 (human, UniProt Q9NR61 27-524); test: ELISA, DLL4 coated on the plate, Fab at 100 nM, signal minus blank
T1 construct: Bought recombinant human DLL4 (R&D Systems Cat#1506-D4/CF); also called delta-like protein 4; Delta-like 4

[2] = molecular target: T2, Recombinant Human DLL4 (human, UniProt Q9NR61 27-524); test: ELISA, DLL4 coated on plate, Fab at 100 nM, absorbance at 450 nm minus blank
T2 construct: also called delta-like protein 4; rHuman DLL4

Row | ELISA Signal-blank (100 nM Fab) [1] | ELISA Signal-blank (100 nM Fab) [2] | Binder
1 | 0.395 |  | B1
2 | 0.261 |  | B2
3 | 0.562 |  | B3
4 | 0.598 |  | B4
5 |  | 0.236 | B5
6 | 0.382 |  | B6
7 | 0.195 |  | B7
8 | 0.625 |  | B8
9 | 0.336 |  | B9
10 | 0.248 |  | B10
11 | 0.256 |  | B11
12 | 0.078 |  | B12
13 | 0.734 |  | B13
14 | 0.264 |  | B14
15 | 0.318 |  | B15
16 |  | 0.244 | B16
17 |  | 0.186 | B17
18 |  | 0.483 | B18
19 | 0.199 |  | B19
20 | 0.451 |  | B20
21 |  | 0.216 | B21
